# Measurements taken from US20240391984A1.
# Positions count from the first letter of the chain named. Numbers in names are those of the source.
# B1: pAM145 (B5 domain of Protein L with H45N backbone; pos 10 N, pos 45 N, pos 60 N) (designed binder)
# chain: KEQVTIKENIYFEDGTVQTATFKGTFAEATAEAYRYADLLSKENGKYTADLEDGGYTINIRFAGKEEPEE
# B2: pAM158 (B5 domain of Protein L; pos 10 Q, pos 45 A, pos 60 Q) (designed binder)
# chain: B1 chain with N9Q, N44A, N59Q
# B3: pAM180 (B5 domain of Protein L; pos 10 N, pos 45 H, pos 60 N) (protein)
# chain: B1 chain with N44H
# B4: pAM171 (B5 domain of Protein L; pos 10 Y, pos 45 H, pos 60 Y) (designed binder)
# chain: B1 chain with N9Y, N44H, N59Y
# B5: pAM144 (B4 domain of Protein L; pos 10 N, pos 45 N, pos 60 N) (protein)
# chain: PKEEVTIKANLIYADGKTQTAEFKGTFAEATAEAYRYADLLAKENGKYTADLEDGGYTINIRFAGKKVDEKPEE
# B6: pAM170 (B4 domain of Protein L; pos 10 Y, pos 45 H, pos 60 Y) (designed binder)
# chain: B5 chain with N10Y, N45H, N60Y
# B7: pAM157 (B4 domain of Protein L; pos 10 Q, pos 45 A, pos 60 Q) (designed binder)
# chain: B5 chain with N10Q, N45A, N60Q
# B8: pAM152 (C4 domain of Protein L; pos 10 N, pos 45 N, pos 60 N) (protein)
# chain: PKEEVTIKVNLIFADGKTQTAEFKGTFEEATAEAYRYADLLAKVNGEYTADLEDGGYTINIKFAGKEQPGENPG
# B9: pAM178 (C4 domain of Protein L; pos 10 Y, pos 45 H, pos 60 Y) (designed binder)
# chain: B8 chain with N10Y, N45H, N60Y
# B10: pAM165 (C4 domain of Protein L; pos 10 Q, pos 45 A, pos 60 Q) (designed binder)
# chain: B8 chain with N10Q, N45A, N60Q
# B11: pAM141 (B1 domain of Protein L; pos 10 N, pos 45 N, pos 60 N) (protein)
# chain: SEEEVTIKANLIFANGSTQTAEFKGTFEKATSEAYAYADTLKKDNGEYTVDVADKGYTLNIKFAGKEKTPEE
# B12: pAM154 (B1 domain of Protein L; pos 10 Q, pos 45 A, pos 60 Q) (designed binder)
# chain: B11 chain with N10Q, N45A, N60Q
# B13: pAM167 (B1 domain of Protein L; pos 10 Y, pos 45 H, pos 60 Y) (designed binder)
# chain: B11 chain with N10Y, N45H, N60Y
# B14: pAM153 (D1 domain; pos 10 N, pos 45 N, pos 60 N) (protein)
# chain: PKEEVTIKANLIFADGKTQTAEFKGTFEEATAEAYRYADLLAKVNGEYTADLEDGGYTINIKFAGKEQPGEN
# B15: pAM179 (D1 domain; pos 10 Y, pos 45 H, pos 60 Y) (designed binder)
# chain: B14 chain with N10Y, N45H, N60Y
# B16: pAM166 (D1 domain; pos 10 Q, pos 45 A, pos 60 Q) (designed binder)
# chain: B14 chain with N10Q, N45A, N60Q
# B17: pAM148 (C2 domain of Protein L; pos 10 N, pos 45 N, pos 60 N) (protein)
# chain: PKEEVTIKVNLIFADGKTQTAEFKGTFEEATAKAYAYADLLAKENGEYTADLEDGGNTINIKFAGKETPETPEE
# B18: pAM177 (C3 domain of Protein L; pos 10 Y, pos 39 D, pos 45 H, pos 57 Y, pos 60 Y) (designed binder)
# chain: B17 chain with N10Y, T18I, N45H, N57Y, N60Y
# B19: pAM161 (C2 domain of Protein L; pos 10 Q, pos 45 A, pos 60 Q) (designed binder)
# chain: B17 chain with N10Q, N45A, N60Q
# B20: pAM174 (C2 domain of Protein L; pos 10 Y, pos 45 H, pos 60 Y) (designed binder)
# chain: B17 chain with N10Y, N45H, N60Y
# B21: pAM149 (C2 domain of Protein L; pos 10 N, pos 45 N, pos 57 Y, pos 60 N) (designed binder)
# chain: B17 chain with N57Y
# B22: pAM176 (C3 domain of Protein L; pos 10 Y, pos 45 H, pos 60 Y) (designed binder)
# chain: B17 chain with N10Y, T18I, D39N, N45H, N60Y
# B23: pAM164 (C3 domain of Protein L; pos 10 Q, pos 39 D, pos 45 A, pos 57 Y, pos 60 Q) (designed binder)
# chain: B17 chain with N10Q, T18I, N45A, N57Y, N60Q
# B24: pAM151 (C3 domain of Protein L; pos 10 N, pos 39 D, pos 45 N, pos 57 Y, pos 60 N) (designed binder)
# chain: B17 chain with T18I, N57Y
# B25: pAM162 (C2 domain of Protein L; pos 10 Q, pos 45 A, pos 57 Y, pos 60 Q) (designed binder)
# chain: B17 chain with N10Q, N45A, N57Y, N60Q
# B26: pAM175 (C2 domain of Protein L; pos 10 Y, pos 45 H, pos 57 Y, pos 60 Y) (designed binder)
# chain: B17 chain with N10Y, N45H, N57Y, N60Y
# B27: pAM150 (C3 domain of Protein L; pos 10 N, pos 45 N, pos 60 N) (protein)
# chain: B17 chain with T18I, D39N
# B28: pAM163 (C3 domain of Protein L; pos 10 Q, pos 45 A, pos 60 Q) (designed binder)
# chain: B17 chain with N10Q, T18I, D39N, N45A, N60Q
# B29: pAM115 (B3 domain of Protein L; pos 10 N, pos 45 A, pos 60 N) (designed binder)
# chain: PKEEVTIKANLIYADGKTQTAEFKGTFEEATAEAYRYADLLAKEAGKYTVDVADKGYTLNIKFAGKEKTPEE
# B30: pAM123 (B3 domain of Protein L; pos 10 Q, pos 45 N, pos 60 N) (designed binder)
# chain: B29 chain with N10Q, A45N
# B31: pAM126 (B3 domain of Protein L; pos 10 Q, pos 45 N, pos 60 Q) (designed binder)
# chain: B29 chain with N10Q, A45N, N60Q
# B32: pAM124 (B3 domain of Protein L; pos 10 Q, pos 45 A, pos 60 N) (designed binder)
# chain: B29 chain with N10Q
# B33: pAM143 (B2 domain of Protein L; pos 10 N, pos 45 N, pos 60 N) (protein)
# chain: B29 chain with T31A, L40A, A42K, E44D, A45N, K47E
# B34: pAM116 (B3 domain of Protein L; pos 10 N, pos 45 H, pos 60 N) (designed binder)
# chain: B29 chain with A45H
# B35: pAM169 (B2 domain of Protein L; pos 10 Y, pos 45 H, pos 60 Y) (designed binder)
# chain: B29 chain with N10Y, T31A, L40A, A42K, E44D, A45H, K47E, N60Y
# B36: pAM130 (B3 domain of Protein L; pos 10 Q, pos 45 H, pos 60 Q) (designed binder)
# chain: B29 chain with N10Q, A45H, N60Q
# B37: pAM156 (B2 domain of Protein L; pos 10 Q, pos 45 A, pos 60 Q) (designed binder)
# chain: B29 chain with N10Q, T31A, L40A, A42K, E44D, K47E, N60Q
# B38: pAM134 (B3 domain of Protein L; pos 10 Y, pos 45 H, pos 60 N) (designed binder)
# chain: B29 chain with N10Y, A45H
# B39: pAM146 (C1 domain of Protein L; pos 10 N, pos 45 N, pos 60 N) (protein)
# chain: PEEEVTIKANLIFADGSTQNAEFKGTFAKAVSDAYAYADALKKDNGEYTVDVADKGLTLNIKFAGKKEKPEE
# B40: pAM159 (C1 domain of Protein L; pos 10 Q, pos 45 A, pos 60 Q) (designed binder)
# chain: B39 chain with N10Q, N45A, N60Q
# B41: pAM172 (C1 domain of Protein L; pos 10 Y, pos 45 H, pos 60 Y) (designed binder)
# chain: B39 chain with N10Y, N45H, N60Y
# Biological target: polyclonal IgG (Gammanorm, Octapharma, Sweden)
# Assay: SPR (Biacore 8K+), variant amine-coupled to CM5, Gammanorm as analyte, steady state fit
row,Binder,Kd [nM]
1,B1,11
2,B2,24
3,B3,21
4,B4,40
5,B5,38
6,B6,49
7,B7,38
8,B8,24
9,B9,45
10,B10,38
11,B11,48
12,B12,65
13,B13,97
14,B14,32
15,B15,75
16,B16,41
17,B17,35
18,B18,58
19,B19,110
20,B20,105
21,B21,45

row,Binder,Kd [nM]
1,B22,137
2,B23,39
3,B24,30
4,B25,39
5,B26,57
6,B27,40
7,B28,188
8,B29,51
9,B30,51
10,B31,52
11,B32,51
12,B33,36
13,B34,51
14,B35,76
15,B36,57
16,B37,92
17,B38,55
18,B39,61
19,B40,103
20,B41,110

# Biological target: polyclonal IgG (Gammanorm, Octapharma, Sweden)
# Assay: SPR (Biacore 8K+), variant amine-coupled to CM5, Gammanorm as analyte, 1:1 kinetic fit
row,Binder,Kd [nM]
1,B29,12
2,B30,13
3,B31,16
4,B32,12
5,B34,14
6,B36,19
7,B38,18
